From patent US20180333502A1 (published 2018)

T1: human GITR on cells (activated human T cells; 3A9-hGITR cells) (human, UniProt Q9Y5U5 26-241)
T1 chain: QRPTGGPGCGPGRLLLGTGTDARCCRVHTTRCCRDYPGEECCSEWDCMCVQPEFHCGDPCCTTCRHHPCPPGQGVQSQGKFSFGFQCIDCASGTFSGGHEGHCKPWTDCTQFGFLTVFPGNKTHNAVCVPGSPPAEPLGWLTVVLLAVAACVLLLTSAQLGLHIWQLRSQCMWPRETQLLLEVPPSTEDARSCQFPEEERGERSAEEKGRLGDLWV


Target: T1, human GITR on cells (activated human T …)
Assay: FACS binding to activated human CD4 T cells

Row | EC50 [nM] | Binder
1 | 0.277 | anti-GITR-IgG2 (antibody) heavy: QVQLVESGGGVVQPGRSLRLSCAASGFTFSSYGMHWVRQAPGKGLEWVAVIWYEGSNKYYADSVKGRFTISRDNSKNTLYLQMNSLRAEDTAVYYCARGGSMVRGDYYYGMDVWGQGTTVTVSSASTKGPSVFPLAPCSRSTSESTAALGCLVKDYFPEPVTVSWNSGALTSGVHTFPAVLQSSGLYSLSSVVTVPSSNFGTQTYTCNVDHKPSNTKVDKTVERKCCVECPPCPAPPVAGPSVFLFPPKPKDTLMISRTPEVTCVVVDVSHEDPEVQFNWYVDGVEVHNAKTKPREEQFNSTFRVVSVLTVVHQDWLNGKEYKCKVSNKGLPAPIEKTISKTKGQPREPQVYTLPPSREEMTKNQVSLTCLVKGFYPSDIAVEWESNGQPENNYKTTPPMLDSDGSFFLYSKLTVDKSRWQQGNVFSCSVMHEALHNHYTQKSLSLSPGK light: not shown
2 | 0.163 | anti-GITR-IgG2-IgG1.1 (antibody) heavy: QVQLVESGGGVVQPGRSLRLSCAASGFTFSSYGMHWVRQAPGKGLEWVAVIWYEGSNKYYADSVKGRFTISRDNSKNTLYLQMNSLRAEDTAVYYCARGGSMVRGDYYYGMDVWGQGTTVTVSSASTKGPSVFPLAPCSRSTSESTAALGCLVKDYFPEPVTVSWNSGALTSGVHTFPAVLQSSGLYSLSSVVTVPSSNFGTQTYTCNVDHKPSNTKVDKTVERKCCVECPPCPAPPVAGPSVFLFPPKPKDTLMISRTPEVTCVVVDVSHEDPEVKFNWYVDGVEVHNAKTKPREEQYNSTYRVVSVLTVLHQDWLNGKEYKCKVSNKALPSSIEKTISKAKGQPREPQVYTLPPSREEMTKNQVSLTCLVKGFYPSDIAVEWESNGQPENNYKTTPPVLDSDGSFFLYSKLTVDKSRWQQGNVFSCSVMHEALHNHYTQKSLSLSPG light: not shown
